Measurements as given in US20170355766A1 (Xencor, published 2017).
Like-named read-outs stand apart in the source and are kept apart here.

T1: human FcγRIIb receptor protein (R&D Systems) (human, UniProt P31994 46-217)
T1 construct: Analyte injected over antibodies captured on a protein A/G chip (Biacore); also called CD32b
T1 sequence (looked up): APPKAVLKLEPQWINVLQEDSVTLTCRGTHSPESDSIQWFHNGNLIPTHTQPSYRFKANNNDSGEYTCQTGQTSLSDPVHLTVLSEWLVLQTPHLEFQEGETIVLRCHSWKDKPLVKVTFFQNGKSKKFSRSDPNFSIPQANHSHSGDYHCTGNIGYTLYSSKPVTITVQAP

T2: human H131 FcγRIIa receptor protein (6xHis and GST tags) (human, UniProt P12318 34-217, limits assumed)
T2 construct: also called HIIa
T2 sequence (looked up): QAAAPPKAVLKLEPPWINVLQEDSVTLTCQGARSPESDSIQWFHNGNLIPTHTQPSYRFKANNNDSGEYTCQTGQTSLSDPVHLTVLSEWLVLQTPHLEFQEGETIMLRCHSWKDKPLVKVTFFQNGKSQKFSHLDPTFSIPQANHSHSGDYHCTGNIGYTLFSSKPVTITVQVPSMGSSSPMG

T3: FcγRIIaR (human, UniProt P12318)
T3 construct: recombinant receptor protein with 6xHis and GST tags; also called R131 FcγRIIa
T3 sequence (receptor, looked up): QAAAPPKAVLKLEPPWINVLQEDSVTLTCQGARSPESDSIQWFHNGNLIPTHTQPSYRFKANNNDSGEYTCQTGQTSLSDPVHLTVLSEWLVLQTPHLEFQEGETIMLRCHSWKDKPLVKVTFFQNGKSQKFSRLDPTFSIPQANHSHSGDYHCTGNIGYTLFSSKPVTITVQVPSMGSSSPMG

T4: human FcγRIIb on the cell surface (HEK293T cells transfected with human FcγRIIb cDNA; primary human B cells) (human, UniProt P31994 43-310)
T4 chain: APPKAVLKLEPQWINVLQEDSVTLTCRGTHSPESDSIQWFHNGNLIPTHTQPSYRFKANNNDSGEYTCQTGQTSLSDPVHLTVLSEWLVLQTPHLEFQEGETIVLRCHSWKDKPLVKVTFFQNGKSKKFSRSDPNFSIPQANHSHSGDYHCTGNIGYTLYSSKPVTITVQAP

B1: G236D (antibody, human IgG1, kappa)
heavy: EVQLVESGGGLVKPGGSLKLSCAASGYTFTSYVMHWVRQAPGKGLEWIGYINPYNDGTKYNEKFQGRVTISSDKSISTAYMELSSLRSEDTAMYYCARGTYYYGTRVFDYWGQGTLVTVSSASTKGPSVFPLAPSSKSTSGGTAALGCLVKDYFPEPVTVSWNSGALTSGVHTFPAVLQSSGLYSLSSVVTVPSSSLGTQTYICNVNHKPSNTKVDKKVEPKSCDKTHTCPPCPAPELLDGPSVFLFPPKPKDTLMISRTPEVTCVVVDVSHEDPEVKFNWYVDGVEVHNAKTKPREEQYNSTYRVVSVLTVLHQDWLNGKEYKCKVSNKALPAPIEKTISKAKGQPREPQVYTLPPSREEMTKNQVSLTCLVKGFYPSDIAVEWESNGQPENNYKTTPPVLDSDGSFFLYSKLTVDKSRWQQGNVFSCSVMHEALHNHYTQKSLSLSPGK
light: DIVMTQSPATLSLSPGERATLSCRSSKSLQNVNGNTYLYWFQQKPGQSPQLLIYRMSNLNSGVPDRFSGSGSGTEFTLTISSLEPEDFAVYYCMQHLEYPITFGAGTKLEIKRTVAAPSVFIFPPSDEQLKSGTASVVCLLNNFYPREAKVQWKVDNALQSGNSQESVTEQDSKDSTYSLSSTLTLSKADYEKHKVYACEVTHQGLSSPVTKSFNRGEC
notes: HuAM4G7 IgG1 Fc variant
B2: G236R/L328R (antibody, human IgG1, kappa)
heavy: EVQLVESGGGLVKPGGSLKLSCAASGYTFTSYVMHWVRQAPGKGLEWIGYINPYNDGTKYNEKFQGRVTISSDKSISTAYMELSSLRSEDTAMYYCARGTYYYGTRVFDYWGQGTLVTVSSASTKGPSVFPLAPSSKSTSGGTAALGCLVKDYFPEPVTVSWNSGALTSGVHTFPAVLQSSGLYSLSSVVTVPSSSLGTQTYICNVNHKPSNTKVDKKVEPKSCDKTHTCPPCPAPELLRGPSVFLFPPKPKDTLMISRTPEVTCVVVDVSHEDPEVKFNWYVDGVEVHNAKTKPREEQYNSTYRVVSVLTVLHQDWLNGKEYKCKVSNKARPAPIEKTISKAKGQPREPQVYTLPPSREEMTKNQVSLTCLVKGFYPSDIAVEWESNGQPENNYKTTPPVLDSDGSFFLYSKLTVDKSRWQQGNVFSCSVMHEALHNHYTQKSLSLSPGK
light: DIVMTQSPATLSLSPGERATLSCRSSKSLQNVNGNTYLYWFQQKPGQSPQLLIYRMSNLNSGVPDRFSGSGSGTEFTLTISSLEPEDFAVYYCMQHLEYPITFGAGTKLEIKRTVAAPSVFIFPPSDEQLKSGTASVVCLLNNFYPREAKVQWKVDNALQSGNSQESVTEQDSKDSTYSLSSTLTLSKADYEKHKVYACEVTHQGLSSPVTKSFNRGEC
notes: HuAM4G7 IgG1 Fc variant; also called Fc-KO; FcγR knockout
B3: L235Y/S267E/H268E (antibody, human IgG1, kappa)
heavy: EVQLVESGGGLVKPGGSLKLSCAASGYTFTSYVMHWVRQAPGKGLEWIGYINPYNDGTKYNEKFQGRVTISSDKSISTAYMELSSLRSEDTAMYYCARGTYYYGTRVFDYWGQGTLVTVSSASTKGPSVFPLAPSSKSTSGGTAALGCLVKDYFPEPVTVSWNSGALTSGVHTFPAVLQSSGLYSLSSVVTVPSSSLGTQTYICNVNHKPSNTKVDKKVEPKSCDKTHTCPPCPAPELYGGPSVFLFPPKPKDTLMISRTPEVTCVVVDVEEEDPEVKFNWYVDGVEVHNAKTKPREEQYNSTYRVVSVLTVLHQDWLNGKEYKCKVSNKALPAPIEKTISKAKGQPREPQVYTLPPSREEMTKNQVSLTCLVKGFYPSDIAVEWESNGQPENNYKTTPPVLDSDGSFFLYSKLTVDKSRWQQGNVFSCSVMHEALHNHYTQKSLSLSPGK
light: DIVMTQSPATLSLSPGERATLSCRSSKSLQNVNGNTYLYWFQQKPGQSPQLLIYRMSNLNSGVPDRFSGSGSGTEFTLTISSLEPEDFAVYYCMQHLEYPITFGAGTKLEIKRTVAAPSVFIFPPSDEQLKSGTASVVCLLNNFYPREAKVQWKVDNALQSGNSQESVTEQDSKDSTYSLSSTLTLSKADYEKHKVYACEVTHQGLSSPVTKSFNRGEC
notes: HuAM4G7 IgG1 Fc variant
B4: L235Y/S267E/L328F (antibody, human IgG1, kappa)
heavy: EVQLVESGGGLVKPGGSLKLSCAASGYTFTSYVMHWVRQAPGKGLEWIGYINPYNDGTKYNEKFQGRVTISSDKSISTAYMELSSLRSEDTAMYYCARGTYYYGTRVFDYWGQGTLVTVSSASTKGPSVFPLAPSSKSTSGGTAALGCLVKDYFPEPVTVSWNSGALTSGVHTFPAVLQSSGLYSLSSVVTVPSSSLGTQTYICNVNHKPSNTKVDKKVEPKSCDKTHTCPPCPAPELYGGPSVFLFPPKPKDTLMISRTPEVTCVVVDVEHEDPEVKFNWYVDGVEVHNAKTKPREEQYNSTYRVVSVLTVLHQDWLNGKEYKCKVSNKAFPAPIEKTISKAKGQPREPQVYTLPPSREEMTKNQVSLTCLVKGFYPSDIAVEWESNGQPENNYKTTPPVLDSDGSFFLYSKLTVDKSRWQQGNVFSCSVMHEALHNHYTQKSLSLSPGK
light: DIVMTQSPATLSLSPGERATLSCRSSKSLQNVNGNTYLYWFQQKPGQSPQLLIYRMSNLNSGVPDRFSGSGSGTEFTLTISSLEPEDFAVYYCMQHLEYPITFGAGTKLEIKRTVAAPSVFIFPPSDEQLKSGTASVVCLLNNFYPREAKVQWKVDNALQSGNSQESVTEQDSKDSTYSLSSTLTLSKADYEKHKVYACEVTHQGLSSPVTKSFNRGEC
notes: HuAM4G7 IgG1 Fc variant
B5: S239D (antibody, human IgG1, kappa)
heavy: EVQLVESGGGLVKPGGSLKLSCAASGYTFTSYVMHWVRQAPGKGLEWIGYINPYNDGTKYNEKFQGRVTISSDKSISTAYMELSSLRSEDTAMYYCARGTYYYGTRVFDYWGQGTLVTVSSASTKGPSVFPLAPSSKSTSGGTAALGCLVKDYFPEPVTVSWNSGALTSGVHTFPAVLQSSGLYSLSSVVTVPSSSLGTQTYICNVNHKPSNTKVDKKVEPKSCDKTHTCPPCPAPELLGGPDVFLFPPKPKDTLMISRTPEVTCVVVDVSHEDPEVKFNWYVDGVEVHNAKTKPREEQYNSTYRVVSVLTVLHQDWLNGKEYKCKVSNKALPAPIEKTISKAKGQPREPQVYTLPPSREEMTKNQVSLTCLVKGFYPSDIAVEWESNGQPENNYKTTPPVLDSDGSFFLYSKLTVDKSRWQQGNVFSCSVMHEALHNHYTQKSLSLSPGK
light: DIVMTQSPATLSLSPGERATLSCRSSKSLQNVNGNTYLYWFQQKPGQSPQLLIYRMSNLNSGVPDRFSGSGSGTEFTLTISSLEPEDFAVYYCMQHLEYPITFGAGTKLEIKRTVAAPSVFIFPPSDEQLKSGTASVVCLLNNFYPREAKVQWKVDNALQSGNSQESVTEQDSKDSTYSLSSTLTLSKADYEKHKVYACEVTHQGLSSPVTKSFNRGEC
notes: HuAM4G7 IgG1 Fc variant
B6: S267E/A327E (antibody, human IgG1, kappa)
heavy: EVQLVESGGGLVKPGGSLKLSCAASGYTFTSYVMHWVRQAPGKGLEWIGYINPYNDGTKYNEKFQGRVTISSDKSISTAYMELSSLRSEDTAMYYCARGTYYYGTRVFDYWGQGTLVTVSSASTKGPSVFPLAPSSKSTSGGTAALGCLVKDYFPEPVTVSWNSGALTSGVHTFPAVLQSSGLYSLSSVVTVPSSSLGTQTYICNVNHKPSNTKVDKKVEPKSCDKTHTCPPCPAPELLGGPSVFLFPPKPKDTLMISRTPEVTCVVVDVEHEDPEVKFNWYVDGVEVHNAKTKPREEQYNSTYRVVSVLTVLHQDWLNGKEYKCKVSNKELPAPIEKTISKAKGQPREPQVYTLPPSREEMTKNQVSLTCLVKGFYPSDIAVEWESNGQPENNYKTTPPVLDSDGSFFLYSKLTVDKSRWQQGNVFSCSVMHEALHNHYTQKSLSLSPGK
light: DIVMTQSPATLSLSPGERATLSCRSSKSLQNVNGNTYLYWFQQKPGQSPQLLIYRMSNLNSGVPDRFSGSGSGTEFTLTISSLEPEDFAVYYCMQHLEYPITFGAGTKLEIKRTVAAPSVFIFPPSDEQLKSGTASVVCLLNNFYPREAKVQWKVDNALQSGNSQESVTEQDSKDSTYSLSSTLTLSKADYEKHKVYACEVTHQGLSSPVTKSFNRGEC
notes: HuAM4G7 IgG1 Fc variant
B7: V266M/S267E (antibody, human IgG1, kappa)
heavy: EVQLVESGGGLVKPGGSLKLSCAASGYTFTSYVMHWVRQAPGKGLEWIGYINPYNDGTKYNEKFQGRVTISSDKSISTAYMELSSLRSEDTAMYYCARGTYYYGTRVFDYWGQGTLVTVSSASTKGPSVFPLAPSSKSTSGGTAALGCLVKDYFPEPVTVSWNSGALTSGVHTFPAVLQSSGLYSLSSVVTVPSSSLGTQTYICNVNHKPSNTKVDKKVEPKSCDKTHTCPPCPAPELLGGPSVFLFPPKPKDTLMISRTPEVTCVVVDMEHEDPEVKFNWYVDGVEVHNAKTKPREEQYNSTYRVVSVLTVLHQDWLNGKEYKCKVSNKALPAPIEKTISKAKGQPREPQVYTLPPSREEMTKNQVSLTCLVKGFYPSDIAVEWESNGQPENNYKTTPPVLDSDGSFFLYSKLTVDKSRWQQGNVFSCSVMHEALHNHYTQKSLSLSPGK
light: DIVMTQSPATLSLSPGERATLSCRSSKSLQNVNGNTYLYWFQQKPGQSPQLLIYRMSNLNSGVPDRFSGSGSGTEFTLTISSLEPEDFAVYYCMQHLEYPITFGAGTKLEIKRTVAAPSVFIFPPSDEQLKSGTASVVCLLNNFYPREAKVQWKVDNALQSGNSQESVTEQDSKDSTYSLSSTLTLSKADYEKHKVYACEVTHQGLSSPVTKSFNRGEC
notes: HuAM4G7 IgG1 Fc variant
B8: anti-CD19 antibody HuAM4G7 IgG1 Fc variant L235Y/S267E (antibody)
heavy: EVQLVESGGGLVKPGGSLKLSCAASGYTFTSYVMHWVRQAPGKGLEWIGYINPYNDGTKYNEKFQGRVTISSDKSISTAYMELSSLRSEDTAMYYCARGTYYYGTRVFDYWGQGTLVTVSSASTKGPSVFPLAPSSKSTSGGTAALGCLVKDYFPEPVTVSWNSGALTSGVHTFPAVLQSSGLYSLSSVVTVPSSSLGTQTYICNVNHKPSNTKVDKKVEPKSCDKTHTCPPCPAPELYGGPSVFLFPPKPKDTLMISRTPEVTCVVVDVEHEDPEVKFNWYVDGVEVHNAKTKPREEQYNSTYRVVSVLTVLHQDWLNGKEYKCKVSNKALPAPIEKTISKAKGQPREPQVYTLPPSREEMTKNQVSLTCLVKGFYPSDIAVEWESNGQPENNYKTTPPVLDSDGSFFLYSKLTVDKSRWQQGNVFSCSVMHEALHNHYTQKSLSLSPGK
light: DIVMTQSPATLSLSPGERATLSCRSSKSLQNVNGNTYLYWFQQKPGQSPQLLIYRMSNLNSGVPDRFSGSGSGTEFTLTISSLEPEDFAVYYCMQHLEYPITFGAGTKLEIKRTVAAPSVFIFPPSDEQLKSGTASVVCLLNNFYPREAKVQWKVDNALQSGNSQESVTEQDSKDSTYSLSSTLTLSKADYEKHKVYACEVTHQGLSSPVTKSFNRGEC
notes: Positions are EU numbers, not positions on the UniProt entry; copies: 2 + 2
B9: anti-CD19 antibody HuAM4G7 IgG1 Fc variant S267E/H268E (antibody)
heavy: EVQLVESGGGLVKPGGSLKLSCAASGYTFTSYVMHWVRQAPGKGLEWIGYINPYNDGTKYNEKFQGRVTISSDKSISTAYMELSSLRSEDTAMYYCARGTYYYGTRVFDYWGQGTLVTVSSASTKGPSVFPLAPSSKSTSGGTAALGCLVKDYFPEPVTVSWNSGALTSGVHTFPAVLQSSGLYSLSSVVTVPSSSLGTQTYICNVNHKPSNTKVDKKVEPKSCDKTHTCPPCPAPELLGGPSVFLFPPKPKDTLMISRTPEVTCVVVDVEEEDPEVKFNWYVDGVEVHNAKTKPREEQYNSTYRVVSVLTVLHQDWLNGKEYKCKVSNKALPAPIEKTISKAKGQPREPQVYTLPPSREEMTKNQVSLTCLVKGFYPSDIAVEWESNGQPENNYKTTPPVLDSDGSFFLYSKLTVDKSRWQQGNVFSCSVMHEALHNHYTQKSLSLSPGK
light: DIVMTQSPATLSLSPGERATLSCRSSKSLQNVNGNTYLYWFQQKPGQSPQLLIYRMSNLNSGVPDRFSGSGSGTEFTLTISSLEPEDFAVYYCMQHLEYPITFGAGTKLEIKRTVAAPSVFIFPPSDEQLKSGTASVVCLLNNFYPREAKVQWKVDNALQSGNSQESVTEQDSKDSTYSLSSTLTLSKADYEKHKVYACEVTHQGLSSPVTKSFNRGEC
notes: Positions are EU numbers, not positions on the UniProt entry; also called H268E/S267E; copies: 2 + 2
B10: ^236R/L328R (antibody, human IgG1, kappa)
heavy: EVQLVESGGGLVKPGGSLKLSCAASGYTFTSYVMHWVRQAPGKGLEWIGYINPYNDGTKYNEKFQGRVTISSDKSISTAYMELSSLRSEDTAMYYCARGTYYYGTRVFDYWGQGTLVTVSSASTKGPSVFPLAPSSKSTSGGTAALGCLVKDYFPEPVTVSWNSGALTSGVHTFPAVLQSSGLYSLSSVVTVPSSSLGTQTYICNVNHKPSNTKVDKKVEPKSCDKTHTCPPCPAPELLGRGPSVFLFPPKPKDTLMISRTPEVTCVVVDVSHEDPEVKFNWYVDGVEVHNAKTKPREEQYNSTYRVVSVLTVLHQDWLNGKEYKCKVSNKARPAPIEKTISKAKGQPREPQVYTLPPSREEMTKNQVSLTCLVKGFYPSDIAVEWESNGQPENNYKTTPPVLDSDGSFFLYSKLTVDKSRWQQGNVFSCSVMHEALHNHYTQKSLSLSPGK
light: DIVMTQSPATLSLSPGERATLSCRSSKSLQNVNGNTYLYWFQQKPGQSPQLLIYRMSNLNSGVPDRFSGSGSGTEFTLTISSLEPEDFAVYYCMQHLEYPITFGAGTKLEIKRTVAAPSVFIFPPSDEQLKSGTASVVCLLNNFYPREAKVQWKVDNALQSGNSQESVTEQDSKDSTYSLSSTLTLSKADYEKHKVYACEVTHQGLSSPVTKSFNRGEC
notes: as for B2

Experiments:
[1] = molecular target: T1, human FcγRIIb receptor protein (R&D …); test: SPR (Biacore)
[2] = molecular target: T2, human H131 FcγRIIa receptor protein …; test: SPR (Biacore)
FcγRIIaR = molecular target: T3, FcγRIIaR; test: SPR (Biacore)
[3] = molecular target: T5, human FcγRI receptor protein (R&D Systems) (human, UniProt P12314 16-288); test: SPR (Biacore)
T5 construct: also called CD64
T5 sequence (P12314 16-288 limits assumed): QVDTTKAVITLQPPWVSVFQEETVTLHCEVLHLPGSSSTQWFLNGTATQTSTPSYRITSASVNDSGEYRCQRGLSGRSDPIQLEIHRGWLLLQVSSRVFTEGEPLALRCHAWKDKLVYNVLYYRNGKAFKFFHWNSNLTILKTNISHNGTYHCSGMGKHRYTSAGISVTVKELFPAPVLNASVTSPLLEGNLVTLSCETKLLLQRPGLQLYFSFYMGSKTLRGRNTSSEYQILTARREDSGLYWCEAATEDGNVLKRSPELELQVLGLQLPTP

FcγRIIIaF = molecular target: T6, FcγRIIIaF (human, UniProt P08637); test: SPR (Biacore)
T6 construct: recombinant receptor protein with 6xHis and GST tags; also called F158 FcγRIIIa
T6 sequence (P08637 17-208 limits assumed): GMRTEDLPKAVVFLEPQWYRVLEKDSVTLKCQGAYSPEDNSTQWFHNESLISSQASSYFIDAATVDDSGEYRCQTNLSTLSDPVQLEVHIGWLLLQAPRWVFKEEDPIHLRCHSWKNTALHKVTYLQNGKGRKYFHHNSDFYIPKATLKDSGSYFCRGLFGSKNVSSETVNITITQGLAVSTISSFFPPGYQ

[4] = molecular target: T7, human V158 FcγRIIIa receptor protein (6xHis and GST tags) (human, UniProt P08637 17-208, limits assumed); test: SPR (Biacore)
T7 construct: also called VIIIa
T7 sequence (P08637 17-208 F176V limits assumed): as the sequence (P08637 17-208 limits assumed) above, with F160V counted along it

[5] = molecular target: T4, human FcγRIIb on the cell surface …; test: flow cytometry on FcγRIIb-transfected HEK293T cells
[6] = molecular target: T4, human FcγRIIb on the cell surface …; test: as above

Binder | Fold FcγRIIb [1] [fold] | Fold FcγRIIaH [2] [fold] | Fold FcγRIIaR (FcγRIIaR) [fold] | Fold FcγRI [3] [fold] | binding result (FcγRIIIaF) | binding result [4] | binding result [1] | binding result [2] | binding result (FcγRIIaR) | binding result [3] | Fold FcγRIIIaV [4] [fold] | Fold FcγRIIIaF (FcγRIIIaF) [fold] | EC50 (read off the curve) [5] [ng/mL] | EC50 (read off the curve) [6] [ng/mL]
B1 | 1.54 | 0.167 | 0.758 | 0.0211 | no binding | no binding |  |  |  |  |  |  |  | 
B2 |  |  |  |  | no binding | no binding | no binding | no binding | no binding | no binding |  |  |  | 
B3 | 69.9 | 0.157 | 48.2 | 0.0103 |  |  |  |  |  |  | 0.428 |  |  | 
B4 | 187 | 0.758 | 171 | 0.00436 |  | no binding |  |  |  |  |  |  |  | 
B5 | 3.6 | 1.1 | 3.73 | 3.53 |  |  |  |  |  |  | 8.14 | 6.32 |  | 
B6 | 30.9 |  | 29.3 | 2.3 |  |  |  |  |  |  |  |  | ~10 | 
B7 | 29.2 |  | 30.7 | 1.98 |  |  |  |  |  |  | 0.0448 |  | ~10 | 
B8 | 37.2 | 0.941 | 37.5 | 0.00347 |  |  |  |  |  |  |  |  |  | ~6
B9 | 40.6 |  | 41.7 | 3.52 |  |  |  |  |  |  | 3.15 |  | ~10 | 
B10 |  |  |  |  | no binding | no binding | no binding | no binding | no binding | no binding |  |  |  | 
